Substrate in this data set: O=C(O)c1ccc(O)cc1
The experiment in a line: cells, lysate or membranes.

Experimental findings from PMC4390396 are described below.

B1: E. coli UbiA (EcUbiA) (Escherichia coli K-12; R60A) (protein)
chain: MEWSLTQNKLLAFHRLMRTDKPIGALLLLWPTLWALWVATPGVPQLWILAVFVAGVWLMAAAGCVVNDYADRKFDGHVKRTANRPLPSGAVTEKEARALFVVLVLISFLLVLTLNTMTILLSIAALALAWVYPFMKRYTHLPQVVLGAAFGWSIPMAFAAVSESVPLSCWLMFLANILWAVAYDTQYAMVDRDDDVKIGIKSTAILFGQYDKLIIGILQIGVLALMAIIGELNGLGWGYYWSILVAGALFVYQQKLIANREREACFKAFMNNNYVGLVLFLGLAMSYWHF
Turning to B1, the Km was determined as 3000 µM.

What is called Km is the concentration of substrate that gives half-maximal velocity.
